Laboratory results published in US20220363623A1, “IMAGING AND THERAPEUTIC COMPOSITIONS” (priority 2019, published 2022).
*1 amine or outer side, *2 acyl side, *3 side chain or, on linkers, in order; H or OH if unused. Where a SMILES comes first, the peptide text is derived from it. Bridges are numbered along the chain shown (N, C = ends). Side-chain parts run from the residue outwards. [ ]: non-standard residue; d: D form. The star is where a group is joined. X1 = O=C([C@@H](Cc1ccccc1)N(c1c(NCCCCCN(O)[*:3])c(=O)c1=O)[*:1])[*:2]; X2 = CC(=O)N(O)CCCCCNC(=O)CCC(=O)N(O)CCCCCN*; Thr(ol) = C[C@@H](O)[C@H](N)CO; Suc = O=C(CCC(=O)[*:2])[*:1]

Experiments:
[1] = system: AR42J (rat pancreatic cancer cell line) tumour; assay: in vivo; set-up: species or system mice; settings: mouse
Experimental: (§1) PET-CT imaging and Biodistribution of Octreotate/tide Tracers. Female Balb/c nude mice (age 9 weeks) were inoculated subcutaneously on the right flank with 3×10^6 AR42J cells in PBS:Matrigel (1:1). Mice were weighed and tumours measured twice weekly using electronic callipers. Tumour volume (mm^3) was calculated as length^2×width/2. 12 mice were assigned for imaging and biodistribution studies (tumour volumes: 170-550 mm^3). DFOSqTIDE (2.5 MBq) and DFOSqTATE (2.2 MBq) were administered intravenously by tail vein injection to mice on. At 1, 2, 4 and 18 hr post injection three mice were anaesthetised using isoflurane and placed on the imaging bed of a G8 PET/CT scanner (Perkin Elmer). A CT scan was performed which was immediately followed by a 10 min static PET scan. PET images were reconstructed using the maximal likelihood and expectation maximization (ML-EM) algorithm. PET images were analysed using VivoQuant (Invicro) and Tumour SUVmax, Tumour SUVmax/background average (TBR) and Tumour SUVmax/liver average (TLR) determined. After imaging at 18 hr mice were euthanised and selected tissues were excised, weighed and counted using a Capintec (Captus 4000e) gamma counter. A separate cohort of 3 mice was harvested at 1 hr post injection for biodistribution analysis. The data was analysed using GraphPad Prism 7 and differences between tracers analysed using a t-test.
AR42J (rat pancreatic cancer cell line) tumour bearing Balb/c nude mice as described above were injected intravenously via tail vein injection with ^89ZrDFOSqTATE or ^89ZrDFOSqTIDE (2-3 MBq). At 1, 2, 4 and 18 h post-injection the mice were anaesthetised with isoflurane and imaged over 10 min. At 1 hr after injection of DFOSqTIDE and DFOSqTATE, uptake into kidney, tumour and liver was observed. Representative PET images of mice injected with DFOSqTIDE and DFOSqTATE are shown in FIG. 12 and quantitation of the tumour SUVmax for each radiotracer is summarised in FIG. 13a.
^68GaDFOSq-TIDE and ^68GaDFOSq-TATE tracers were injected (2-3 MBq, 1 μg, 0.5 nmol) intravenously via tail vein to AR42J (rat pancreatic cancer cell line) tumour bearing Balb/c nude mice. PET images were acquired at 1 and 2 h post-injection (FIGS. 15a and b). […] Quantification of the uptake in the images using Standard Uptake Value (SUVmax=radioactivity in a tissue/injected activity/BW) confirms the higher uptake for ^68GaDFOSq-TATE (1 h; SUVmax 1.8±0.2, compared to 1.21±0.20, FIG. 15c). The higher tumor uptake of ^68GaDFOSqTATE was also associated with a higher degree of tumor retention at 2 h post injection with only a 5% reduction in SUVmax whereas the tumor SUVmax for ^68GaDFOSqTIDE reduced by 30% ^68GaDFOSqTATE at 2 h post injection. Both tracers clear rapidly from the blood and there is low uptake in bone consistent with stable gallium-68 complexes as well as low uptake in muscle. Both tracers have significant uptake in the kidneys and bladder.

[2] = system: AR42J (rat pancreatic cancer cell line) tumour; assay: in vivo; set-up: species or system mice; settings: female, Balb/c nude, mouse, iv
Experimental: as §1, with “t-test. The high tumor uptake was confirmed by an ex vivo biodistribution study in the same mouse model where mice were injected with either ^68GaDFOSq-TIDE and ^68GaDFOSq-TATE (2-3 MBq, 1 μg, 0.5 nmol) and then euthanised at either 1 h or 2 h after administration. The amount of injected activity per gram of tissue (% IA/g) in the tumor and major organs was quantified (FIG. 16).” for “t-test.”

[3] = system: LNCaP (human PSMA expressing prostate cancer cell line) tumour; set-up: species or system mice; settings: mouse, in vivo
Experimental: (§2) PET-CT imaging and Biodistribution. Male Balb/c nude mice (age 8.5 weeks) or Male NSG mice (age 12 weeks) were inoculated subcutaneously on the right flank with 6×10^6 LNCap cells in PBS:Matrigel (1:1). Mice were weighed and tumours measured twice weekly using electronic callipers. Tumour volume (mm^3) was calculated as length×width×height×π/6. Mice were assigned for imaging and biodistribution studies (tumour volumes: 85-450 mm3). ^89Zr-DFOSq-PSMA tracers were then administered intravenously by tail vein injection to 6 mice. At 1, 2, 4 and 18 hr post injection three mice were anaesthetised using isoflurane and placed on the imaging bed of a G8 PET/CT scanner (Perkin Elmer). A CT scan was performed and followed immediately by a 10 min static PET scan. PET images were reconstructed using the maximal likelihood and expectation maximization (ML-EM) algorithm. PET Images were analysed using VivoQuant (Invicro) and Tumour SUVmax or Tumour SUVmax/background average (TBR) determined. After imaging at 18 hr mice were euthanised and selected tissues were excised, weighed and counted using a Capintec (Captus 4000e) gamma counter. A separate cohort of 3 mice was harvested at 1 hr post injection for biodistribution analysis as above. The data was analysed using GraphPad Prism 7 and differences between tracers analysed using a t-test.
(§3) ^89Zr Labelled tracers: The ^89Zr radiolabelled PSMA tracers were injected intravenously via tail vein to LNCaP (human PSMA expressing prostate cancer cell line) tumour bearing mice. At 1, 2, 4 and 18 h post-injection the mice were anaesthetised with isoflurane and imaged over 10 min. The representative PET images of mice injected with ^89Zr radiolabelled PSMA tracers at 1 and 18 hr are shown in FIG. 1 and quantitation of the Tumour SUVmax for each tracer is shown in FIG. 2a. […] There was a trend for higher tumour SUVmax for (4) tracer compared to all other tracers at all time points. […] A comparison of tumour uptake values is shown in FIG. 2b and the tissue biodistribution data for the tracers at 1 and 18 hr is summarised in FIG. 3.
(§4) ^68Ga Labelled tracers: Representative PET images of mice injected with ^68Ga(1) and ^68Ga(4) are shown in FIG. 4 and quantitation of the tumour SUVmax is shown in FIG. 5a. […] Tumour uptake of ^68Ga(4) was 1.6 and 1.8 fold higher than ^68Ga(1) at 1 and 2 hr p.i., respectively. This is consistent with the biodistribution results where tumour % ID/g for ^68Ga(4) was higher than ^68Ga(1) at 1 hr (10.8±1.3 vs 6.5±0.4) and at 2.5 hr (8.6±1.0 vs 4.1±0.5) p.i. […] (6.5±0.4% ID/g at 1 hr vs 4.1±0.5% ID/g at 2.5 hr). In contrast, there was no significant change in ^68Ga(4) tumour retention at 1 and 2.5 p.i. (10.8±1.3% ID/g vs […], FIG. 5b).

in vivo = assay: in vivo; set-up: species or system mice; settings: male, mouse, total radioactivity
Experimental: as §2, §3, §4

[4] = system: LNCaP (human PSMA expressing prostate cancer cell line) tumour; assay: in vivo; set-up: species or system mice; settings: mouse
Experimental: as §2, §3, §4

LNCap cells = assay: Cell binding and internalization studies in LNCap cells; type: cell-based, human; settings: 89Zr tracers, 60 min, 37° C.
Experimental: Cell binding and internalization studies. LNCap cells (150,000/well) were plated in RPMI 1640 medium containing 10% FBS into wells of a 24 well plate pre-coated with 0.05% poly-L-lysine and incubated overnight at 37° C. and 5% CO2. The following day cells were washed twice with PBS and incubated for 1 hour at 37° C. in 1 mL per well internalisation buffer (MEM, 1% FBS). The buffer was then replaced with 1 ml per well of a warmed solution containing 0.5 μCi ^89Zr-DFOsq-PSMA tracers in internalisation buffer. Cells were incubated in triplicate for 5, 15, 30 or 60 min at 37° C. and 5% CO2. At each time point, cells were washed twice with ice-cold PBS and the washes collected for counting (unbound fraction). Cells were then incubated twice for 10 min in saline containing 10 μM PMPA and each wash collected for counting (surface bound fraction). The cells were then solubilised in 1 M NaOH (internalised fraction). Total protein content was determined in this fraction using a BCA protein assay kit (Pierce). A Perkin Elmer 2480 Wizard automatic gamma counter was then used to measure Zr-89 radioactivity in unbound, surface bound and internalised fractions. Surface bound and internalised fractions were expressed as percentage of total added radioactivity per mg of protein. Non-specific membrane binding and internalisation was determined by incubating cells with the ^89Zr-DFOSq-PSMA tracers in the presence of excess (10 μM) PMPA. ^89Zr-DFOSq-PSMA tracers uptake at 60 min was also determined in DU145 cells (seeded at 125,000 cells/well), a PSMA negative cell line. The raw data was analysed using GraphPad Prism 7.

In the case of `CC(=O)N(O)CCCCCNC(=O)CCC(=O)N(O)CCCCCNC(=O)CCC(=O)N(O)CCCCCNc1c(N[C@H](Cc2ccccc2)C(=O)N[C@H]2CSSC[C@@H](C(=O)N[C@H](C(=O)O)[C@@H](C)O)NC(=O)[C@H]([C@@H](C)O)NC(=O)[C@H](CCCCN)NC(=O)[C@@H](Cc3c[nH]c4ccccc34)NC(=O)[C@H](Cc3ccc(O)cc3)NC2=O)c(=O)c1=O` (89Zr complex, metal not drawn) [^89ZrDFOSqTATE] (H-[X1]([Suc-X2])CY[dW]KTCT-OH; disulfide 2-7), the “Tumour SUVmax 1 h pi” value [1] is reported as 3.1 ± 0.2, the “Tumour SUVmax 18 h pi” value [1] is reported as 1.3 ± 0.15 and the “Tumour SUVmax Clearance %” value [1] is reported as 58%. The “Tumour Uptake % ID/g 1 h pi” value [2] was 10.4 ± 0.5 % ID/g and the “Tumour Uptake % ID/g 18 h pi” value [2] was 4.9 ± 0.8 % ID/g.
With `CC(=O)N(O)CCCCCNC(=O)CCC(=O)N(O)CCCCCNC(=O)CCC(=O)N(O)CCCCCNc1c(N[C@H](Cc2ccccc2)C(=O)N[C@H]2CSSC[C@@H](C(=O)N[C@H](CO)[C@@H](C)O)NC(=O)[C@H]([C@@H](C)O)NC(=O)[C@H](CCCCN)NC(=O)[C@@H](Cc3c[nH]c4ccccc34)NC(=O)[C@H](Cc3ccc(O)cc3)NC2=O)c(=O)c1=O` (89Zr complex, metal not drawn) [^89ZrDFOSqTIDE] (H-[X1]([Suc-X2])CY[dW]KTC[Thr(ol)]; disulfide 2-7) the “Tumour SUVmax 1 h pi” value [1] was 1.1 ± 0.07, the “Tumour SUVmax 18 h pi” value [1] was 0.5 ± 0.01 and the “Tumour SUVmax Clearance %” value [1] was 55%. The “Tumour Uptake % ID/g 1 h pi” value [2] was 3.4 ± 0.4 % ID/g and the “Tumour Uptake % ID/g 18 h pi” value [2] was 1.7 ± 0.1 % ID/g.
In the case of `CC(=O)N(O)CCCCCNC(=O)CCC(=O)N(O)CCCCCNC(=O)CCC(=O)N(O)CCCCCNc1c(NCCN(CCNC(=O)CCCC(=O)NCc2ccc(C(=O)NCCCCC(NC(=O)NC(CCC(=O)O)C(=O)O)C(=O)O)cc2)CCNC(=O)CCCC(=O)NCc2ccc(C(=O)NCCCCC(NC(=O)NC(CCC(=O)O)C(=O)O)C(=O)O)cc2)c(=O)c1=O` (single isomer, unassigned) [^68Ga(4), metal not drawn], the “Gut uptake in PET images” value [3] is reported as “no gut uptake”, the “Kidney uptake in PET images” value [3] is reported as “high kidney uptake” and the “LNCap tumour uptake in PET images” value [3] is reported as “moderate tumour uptake”. The “Tumour SUVmax 1 h pi” value [3] was 1.6 ± 0.10, the “Tumour SUVmax 2 h pi” value [3] was 1.5 ± 0.09 and the tissue uptake at 1 h (in vivo; Tumour Uptake % ID/g 1 h pi) was 10.8 ± 1.26 %ID/g. The tissue uptake at 2.5 h (in vivo; Tumour Uptake % ID/g 2.5 h pi) was 8.6 ± 0.93 %ID/g and the “Tumour Uptake % ID/g 1 h pi” value [4] was 10.8±1.3 % ID/g.
With `CC(=O)N(O)CCCCCNC(=O)CCC(=O)N(O)CCCCCNC(=O)CCC(=O)N(O)CCCCCNc1c(NCCN(CCNC(=O)CCCC(=O)NCCCCC(NC(=O)NC(CCC(=O)O)C(=O)O)C(=O)O)CCNC(=O)CCCC(=O)NCCCCC(NC(=O)NC(CCC(=O)O)C(=O)O)C(=O)O)c(=O)c1=O` (single isomer, unassigned) [^89Zr(3), metal not drawn] the “Tumour SUVmax 1 h pi” value [3] was 1.7 ± 0.12, the “Tumour SUVmax 18 h pi” value [3] was 0.6 ± 0.06 and the “Tumour SUVmax Clearance %” value [3] was 65%. The “Tumour Uptake % ID/g 1 h pi” value ([4]; male, iv, 1 h) was 5.9 % ID/g, the “Tumour Uptake % ID/g 18 h pi” value ([4]; male, iv, 18 h) was 2.5 ± 0.22 % ID/g and the “Cell Uptake % AR/mg protein (60 min) Surface bound” value (LNCap cells) was 2.2 ± 0.14 % AR/mg protein. For the same molecule, the “Cell Uptake % AR/mg protein (60 min) internalized” value (LNCap cells) was 3.8 ± 0.39 % AR/mg protein.
